Data from patent US20090226946.

B1: GST-Nedd4 (protein)
chain: MATCAVEVFGLLEDEENSRIVRVRVIAGIGLAKKDILGASDPYVRVTLYDPMNGVLTSVQTKTIKKSLNPKWNEEILFRVHPQQHRLLFEVFDENRLTRDDFLGQVDVPLYPLPTENPRLERPYTFKDFVLHPRSHKSRVKGYLRLKMTYLPKTSGSEDDNAEQAEELEPGWVVLDQPDAACHLQQQQEPSPLPPGWEERQDILGRTYYVNHESRRTQWKRPTPQDNLTDAENGNIQLQAQRAFTTRRQISEETESVDNRESSENWEIIREDEATMYSNQAFPSPPPSSNLDVPTHLAEELNARLTIFGNSAVSQPASSSNHSSRRGSLQAYTFEEQPTLPVLLPTSSGLPPGWEEKQDERGRSYYVDHNSRTTTWTKPTVQATVETSQLTSSQSSAGPQSQASTSDSGQQVTQPSEIEQGFLPKGWEVRHAPNGRPFFIDHNTKTTTWEDPRLKIPAHLRGKTSLDTSNDLGPLPPGWEERTHTDGRIFYINHNIKRTQWEDPRLENVAITGPAVPYSRDYKRKYEFFRRKLKKQNDIPNKFEMKLRRATVLEDSYRRIMGVKRADFLKARLWIEFDGEKGLDYGGVAREWFFLISKEMFNPYYGLFEYSATDNYTLQINPNSGLCNEDHLSYFKFIGRVAGMAVYHGKLLDGFFIRPFYKMMLHKPITLHDMESVDSEYYNSLRWILENDPTELDLRFIIDEELFGQTHQHELKNGGSEIVVTNKNKKEYIYLVIQWRFVNRIQKQMAAFKEGFFELIPQDLIKIFDENELELLMCGLGDVDVNDWREHTKYKNGYSANHQVIQWFWKAVLMMDSEKRIRLLQFVTGTSRVPMNGFAELYGSNGPQSFTVEQWGTPEKLPRAHTCFNRLDLPPYESFEELWDKLQMAIENTQGFDGVD
B2: GST-Murf1 (protein)
chain: MDYKSSLIQDGNPMENLEKQLICPICLEMFTKPVVILPCQHNLCRKCANDIFQAANPYWTSRGSSVSMSGGRFRCPTCRHEVIMDRHGVYGLQRNLLVENIIDIYKQECSSRPLQKGSHPMCKEHEDEKINIYCLTCEVPTCSMCKVFGIHKACEVAPLQSVFQGQKTELNNCISMLVAGNDRVQTIITQLEDSRRVTKENSHQVKEELSQKFDTLYAILDEKKSELLQRITQEQEKKLSFIEALIQQYQEQLDKSTKLVETAIQSLDEPGGATFLLTAKQLIKSIVEASKGCQLGKTEQGFENMDFFTLDLEHIADALRAIDFGTDEEEEEFIEEEDQEEEESTEGKEEGHQ
B3: GST-E6AP (protein)
chain: MEKLHQCYWKSGEPQSDDIEASRMKRAAAKHLIERYYHQLTEGCGNEACTNEFCASCPTFLRMDNNAAAIKALELYKINAKLCDPHPSKKGASSAYLENSKGAPNNSCSEIKMNKKGARIDFKDVTYLTEEKVYEILELCREREDYSPLIRVIGRVFSSAEALVQSFRKVKQHTKEELKSLQAKDEDKDEDEKEKAACSAAAMEEDSEASSSRIGDSSQGDNNLQKLGPDDVSVDIDAIRRVYTRLLSNEKIETAFLNALVYLSPNVECDLTYHNVYSRDPNYLNLFIIVMENRNLHSPEYLEMALPLFCKAMSKLPLAAQGKLIRLWSKYNADQIRRMMETFQQLITYKVISNEFNSRNLVNDDDAIVAASKCLKMVYYANVVGGEVDTNHNEEDDEEPIPESSELTLQELLGEERRNKKGPRVDPLETELGVKTLDCRKPLIPFEEFINEPLNEVLEMDKDYTFFKVETENKFSFMTCPFILNAVTKNLGLYYDNRIRMYSERRITVLYSLVQGQQLNPYLRLKVRRDHIIDDALVRLEMIAMENPADLKKQLYVEFEGEQGVDEGGVSKEFFQLVVEEIFNPDIGMFTYDESTKLFWFNPSSFETEGQFTLIGIVLGLAIYNNCILDVHFPMVVYRKLMGKKGTFRDLGDSHPVLYQSLKDLLEYEGNVEDDMMITFQISQTDLFGNPMMYDLKENGDKIPITNENRKEFVNLYSDYILNKSVEKQFKAFRRGFHMVTNESPLKYLFRPEEIELLICGSRNLDFQALEETTEYDGGYTRDSVLIREFWEIVHSFTDEQKRLFLQFTTGTDRAPVGGLGKLKMIIAKNGPDTERLPTSHTCFNVLLLPEYSSKEKLKERLLKAITYAKGFGML
B4: His-CHIP (protein)
chain: MKGKEEKEGGARLGAGGGSPEKSPSAQELKEQGNRLFVGRKYPEAAACYGRAITRNPLVAVYYTNRALCYLKMQQHEQALADCRRALELDGQSVKAHFFLGQCQLEMESYDEAIANLQRAYSLAKEQRLNFGDDIPSALRIAKKKRWNSIEERRIHQESELHSYLSRLIAAERERELEECQRNHEGDEDDSHVRAQQACIEAKHDKYMADMDELFSQVDEKRKKRDIPDYLCGKISFELMREPCITPSGITYDRKDIEEHLQRVGHFDPVTRSPLTQEQLIPNLAMKEVIDAFISENGWVEDY
B5: GST-Siah2 (protein)
chain: MSRPSSTGPSANKPCSKQPPPQPQHTPSPAAPPAAATISAAGPGSSAVPAAAAVISGPGGGGGAGPVSPQHHELTSLFECPVCFDYVLPPILQCQAGHLVCNQCRQKLSCCPTCRGALTPSIRNLAMEKVASAVLFPCKYATTGCSLTLHHTEKPEHEDICEYRPYSCPCPGASCKWQGSLEAVMSHLMHAHKSITTLQGEDIVFLATDINLPGAVDWVMMQSCFGHHFMLVLEKQEKYEGHQQFFAIVLLIGTRKQAENFAYRLELNGNRRRLTWEATPRSIHDGVAAAIMNSDCLVFDTAIAHLFADNGNLGINVTISTCCP

Target: T1, S5a, P55036
T1 chain: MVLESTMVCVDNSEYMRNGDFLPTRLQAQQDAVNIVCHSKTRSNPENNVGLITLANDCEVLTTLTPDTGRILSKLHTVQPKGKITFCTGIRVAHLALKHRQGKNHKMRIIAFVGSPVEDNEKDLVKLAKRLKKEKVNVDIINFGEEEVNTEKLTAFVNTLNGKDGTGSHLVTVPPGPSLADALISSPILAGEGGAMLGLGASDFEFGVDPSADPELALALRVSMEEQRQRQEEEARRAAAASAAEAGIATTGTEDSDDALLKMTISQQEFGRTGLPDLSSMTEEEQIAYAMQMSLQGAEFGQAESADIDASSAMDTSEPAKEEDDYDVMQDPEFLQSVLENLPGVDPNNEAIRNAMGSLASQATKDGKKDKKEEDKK

Row | Protein | Ubiquitinated S5a? (in vitro ubiquitination assay, Western blot with anti-S5a)
1 | B1 | Yes
2 | B2 | Yes
3 | B3 | Yes
4 | B4 | Yes
5 | B5 | Yes (low)
